Measured values reported in publication PMC3515690 (Nature structural & molecular biology, 2012).

Columns and labels:
[1] = target: T1, Atg7 V285D (S. cerevisiae, UniProt P38862 1-630, V285D); assay: cross-linking
T1 sequence (looked up): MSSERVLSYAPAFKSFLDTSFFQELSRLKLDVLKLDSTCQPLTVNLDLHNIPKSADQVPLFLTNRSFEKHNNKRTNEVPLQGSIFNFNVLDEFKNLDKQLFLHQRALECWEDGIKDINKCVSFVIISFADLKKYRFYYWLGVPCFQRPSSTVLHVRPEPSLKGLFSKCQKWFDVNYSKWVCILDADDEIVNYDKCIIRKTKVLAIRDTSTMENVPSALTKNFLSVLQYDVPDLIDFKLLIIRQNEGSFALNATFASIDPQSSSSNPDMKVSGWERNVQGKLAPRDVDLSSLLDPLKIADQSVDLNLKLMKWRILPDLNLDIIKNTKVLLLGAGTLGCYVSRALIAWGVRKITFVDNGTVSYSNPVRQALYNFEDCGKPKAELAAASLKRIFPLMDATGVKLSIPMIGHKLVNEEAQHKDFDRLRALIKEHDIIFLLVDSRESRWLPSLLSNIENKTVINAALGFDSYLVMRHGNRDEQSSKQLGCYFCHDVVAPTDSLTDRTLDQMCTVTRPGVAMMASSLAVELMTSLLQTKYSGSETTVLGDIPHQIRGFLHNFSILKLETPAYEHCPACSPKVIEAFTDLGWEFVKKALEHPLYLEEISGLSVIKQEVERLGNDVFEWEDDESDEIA

[2] = target: T2, Atg7 (residues 1–613) (S. cerevisiae, UniProt P38862 1-613, catalytic Cys507 linked through bismaleimidoethane (BMOE) to Atg3 Cys234); assay: crystal structure
T2 sequence (looked up): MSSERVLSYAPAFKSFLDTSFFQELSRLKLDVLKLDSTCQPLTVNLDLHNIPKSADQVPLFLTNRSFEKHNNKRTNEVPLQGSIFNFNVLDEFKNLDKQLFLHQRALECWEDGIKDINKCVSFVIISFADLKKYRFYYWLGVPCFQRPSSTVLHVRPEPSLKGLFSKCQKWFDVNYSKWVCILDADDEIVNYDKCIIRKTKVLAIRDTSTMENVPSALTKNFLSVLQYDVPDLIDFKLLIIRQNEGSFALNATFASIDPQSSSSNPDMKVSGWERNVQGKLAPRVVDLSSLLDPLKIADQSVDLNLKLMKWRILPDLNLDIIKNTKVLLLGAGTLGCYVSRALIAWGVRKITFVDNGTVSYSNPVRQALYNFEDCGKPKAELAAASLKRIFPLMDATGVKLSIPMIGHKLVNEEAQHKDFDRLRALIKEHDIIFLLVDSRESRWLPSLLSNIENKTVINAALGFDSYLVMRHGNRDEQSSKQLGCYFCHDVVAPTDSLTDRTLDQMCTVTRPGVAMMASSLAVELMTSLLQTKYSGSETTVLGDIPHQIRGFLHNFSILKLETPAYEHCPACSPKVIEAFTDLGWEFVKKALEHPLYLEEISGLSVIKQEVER

- binding result [1]: binds
- binding result [2]: binds
B1: Atg3(C41A C76A C83A) (enzyme, S. cerevisiae)
chain: MIRSTLSSWREYLTPITHKSTFLTTGQITPEEFVQAGDYLAHMFPTWKWNEESSDISYRDFLPKNKQFLIIRKVPADKRAEQAVEVEGPDVIMKGFAEDGDEDDVLEYIGSETEHVQSTPAGGTKDSSIDDIDELIQDMEIKEEDENDDTEEFNAKGGLAKDMAQERYYDLYIAYSTSYRVPKMYIVGFNSNGSPLSPEQMFEDISADYRTKTATIEKLPFYKNSVLSVSIHPCKHANVMKILLDKVRVVRQRRRKELQEEQELDGVGDWEDLQDDIDDSLRVDQYLIVFLKFITSVTPSIQHDYTMEGW
modifications: Cys234 reacted with bismaleimidoethane (BMOE)
